According to the RNAGym collection of RNA variant scans (doi:10.7554/elife.90254):

B1: LINE1-full (parent)
chain: UACGUAGGUGGUUUUCCCCUGAUAGUGCUAAGGGGGCCUGGAAGUUUGGACUGGGCAGAGCUCAACACAGCGUGGCAAAGUGGCUGUGGCUAGACUGCCUCUCUGGAUUCCUCGUCACUCAGCAGGGCAUCUCUGAGAGAAAUGCC

Variants of: B1
Experiment: self-cleavage, relative activity (ratio to wild type); higher = more cleavage; in vitro, sequencing; the parent is a self-cleaving ribozyme

Variant | self-cleavage
UACGUAGGUGGUUUUCCCCUGAUGGUGCUAAGGGGGCCUGGAAGUUUGGACUGGGCAGAGCUCAACACAGCGUGGCAAAGUGGCUGUGGCUAGACUGCCUCUCUGGAUUCCUCGUCGCUCAGCAGGGCAUCUCUGAGAGAAAUGCC [A24G A117G] | 1.78
UACGUAGGUGGUUUUCCCCUGAUAGUGCUAAGGGGGCCUGGAAGUUUGGACUGGGCAGAGCUCAACACAGCGUGGCAAAGUGGCCGUGGCUAGACUGCCUCUCUGGAUUCCUCGUCACUCAGCAGGGCACCUCUGAGAGAAAUGCC [U85C U130C] | 0.23
UACGUAGGUGGUUUUCCCCUGAUAGUGCUAAGGGGGCCUGGAUGUUUGGACUGGGCAGAGCUCAACACAGCGUGGCAAAGUGGCUGUGGCUAGACUGCCUCUCUGGAUUCCUCGUCACUCAGCAGGGCAUCUCUGAGAGAAGUGCC [A43U A142G] | 1.24
UACGUAGGUGGUUUUCCCCUGAUAGUGCUAAGGGGGCCUGGAAGUUUGGACUGGGCAGAGCUCAACACAGCGUGGCAAAGUGGCUGUGGCUAGACUGCCUCUCUGGACUACUCGUCACUCAGCAGGGCAUCUCUGAGAGAAAUGCC [U108C C110A] | 1.49
UACGUAGGUGGUUUCCCCCUGAUAGUGCUAAGGGGGCCUGGAAGUUUGGAAUGGGCAGAGCUCAACACAGCGUGGCAAAGUGGCUGUGGCUAGACUGCCUCUCUGGAUUCCUCGUCACUCAGCAGGGCAUCUCUGAGAGAAAUGCC [U15C C51A] | 1.37
UACGUAGGUGGUUUUCCCCUGAUAGUGCUAAGGGGGCCUGGAAGUUUGGACUGGGCCGAGCUCAACACUGCGUGGCAAAGUGGCUGUGGCUAGACUGCCUCUCUGGAUUCCUCGUCACUCAGCAGGGCAUCUCUGAGAGAAAUGCC [A57C A69U] | 0.08
UACGUAGGUGGUUUUCCCCUGAUAGCGCUAAGGGGGCCUGGAAGUUUGGACUGGGCAGAGCUCAACACAGCGUGGCAAAGUGGCUGUGGCUAGACUGCCUCUCUGGAUUCCUCGUCACCCAGCAGGGCAUCUCUGAGAGAAAUGCC [U26C U119C] | 1.77
UACGUAGGUGGUUUUCCCCUGAUAGUGCUAAGGGGGCCUGGAAGUUUGGACCGGGCAGAGCUCAACACAGCGUGGCAAAGUGGCUGUGGCUAGACUGCCUCUCUGGAUUCCUCGUCACUCCGCAGGGCAUCUCUGAGAGAAAUGCC [U52C A121C] | 1.92
UACGUAGGUGGUUUUCCCCUGAUAGUGCUAAGGGGGCCUGGAAGUUUGGACUGGGCAGAGCUCAACACAGCGUGGCAAAGUGGCUGUGGCUAGACUGCCACUCUGGAUUCCUCGUCACUCAGCAGGGCAUCUCUGAGAGAAAUGCG [U100A C146G] | 1.26
UACGUAGGUGGUUUUCCCCUGAUAGUGCUAAGGGGGCCUGGAAGUUUGGACUGGGCAGAGCUCAACACAGCGUGGCAAAGUGGCUGUGGCUAGACUGCCUCUCUGAAUUCCUCGUCACUCAGCAGGGCAUCGCUGAGAGAAAUGCC [G106A U132G] | 1.67
UACGUAGGUGGUUUUCCCCUGAUAGUGCUAAGGGGGCCUGGAAGUUUGGACUGGGCAGAGCUCAACACAGCGUGGCAAAGUGGCUGUGGCUAGACUGCCUCUCUGGAUUCCUCGUCACUCAGCAGGGUAUCUCUGAGAGAGAUGCC [C128U A141G] | 1.37
UACGUAGGUGGUUUUCCCCUGAUAGUGCUAAGGGGGCCUGGAAGUUUGGACUGGGCAGAGCUCAACACAGCGUGGCAAAGGGGCUGUGGCUAGACUGCCUCUCUGGAUUCCUCGUCACCCAGCAGGGCAUCUCUGAGAGAAAUGCC [U81G U119C] | 1.54
UACGUAGGUGGUUUUCCCCUGAUAGUGCUAAGGGGGCCUGGAAGUUUGGACUGGGCAGAGCUCAACACAGCGUGGCAAAGUGGCUGUGGCUAGACUGCCUCUCUGGAUUCCUCGUCACUCAACAGGGCACCUCUGAGAGAAAUGCC [G122A U130C] | 1.91
UAUGUAGGUGGUUUUCCCCUGAUAGUGCUAAGGGGGCCUGGAAGUUUGGACUGGGCAGAGCUCAACACAGCGUGGCUAAGUGGCUGUGGCUAGACUGCCUCUCUGGAUUCCUCGUCACUCAGCAGGGCAUCUCUGAGAGAAAUGCC [C3U A77U] | 0
UACGUAGGUGGUCUUCCCCUGAUAGUGCUAAGGGGGCCUGGAAGGUUGGACUGGGCAGAGCUCAACACAGCGUGGCAAAGUGGCUGUGGCUAGACUGCCUCUCUGGAUUCCUCGUCACUCAGCAGGGCAUCUCUGAGAGAAAUGCC [U13C U45G] | 1.46
UACGUAGGUGGUUCUCCCCCGAUAGUGCUAAGGGGGCCUGGAAGUUUGGACUGGGCAGAGCUCAACACAGCGUGGCAAAGUGGCUGUGGCUAGACUGCCUCUCUGGAUUCCUCGUCACUCAGCAGGGCAUCUCUGAGAGAAAUGCC [U14C U20C] | 1.05
UACGUAGGUGGUUUUCCCCUGAUAGUGCUAAGGGGGCCUGGAAGUUUGGACUGGGCAGAGCUCAACACAGCGUGGCAAAGUGGCUGUGGCUAGACUGCCUCUCUGGAUUCCUCGUAACUCAGCAGGGCAUCUCUGAGAGAAACGCC [C116A U143C] | 0.71
UACGUAGGUGGUUUUCCCCUGAUAGUGCUAAGGGGGCCUGGAAGUUUGGACUGGGCAGAGCACAACACAGCGUGGCAAAGUGGCUGUGGCUAGACUGCCUCUCUGGAUUCCUCGUAACUCAGCAGGGCAUCUCUGAGAGAAAUGCC [U62A C116A] | 0.05
UGCGUAGGUGGUUUUCCCCUGAUAGGGCUAAGGGGGCCUGGAAGUUUGGACUGGGCAGAGCUCAACACAGCGUGGCAAAGUGGCUGUGGCUAGACUGCCUCUCUGGAUUCCUCGUCACUCAGCAGGGCAUCUCUGAGAGAAAUGCC [A2G U26G] | 0.21
UACGUAGGUGGUUUUCCCCUGAUAGUGCUAAGGGGGCCUGGAAGUUUGGACUGGGCAGAGCUCAACGCAGCGUGGCAAAGUGGCUGUGGCUAGACUGCCUCUCUGGAUUCUUCGUCACUCAGCAGGGCAUCUCUGAGAGAAAUGCC [A67G C111U] | 0.54

Variant | self-cleavage
UACGUAGGAGGUUUUCCCCUGAUAGUGCUAAGGGGGCCUGGAAGUUUGGACUGGGCAGAGCUCAACACAGCGGGGCAAAGUGGCUGUGGCUAGACUGCCUCUCUGGAUUCCUCGUCACUCAGCAGGGCAUCUCUGAGAGAAAUGCC [U9A U73G] | 1.29
UACGUAGGUGGUUUUCCCCUGAUAGUGCUAAGGGGGCCUGGAAGUUUGGACUGGGCAGAGCUCAACACAGCGUGGCAAAGUGGCUGUGGCUAGACAGCCUCUCUGGAUUCCUCGUCACUCAGCAGGGCAUCUCUGAGAGUAAUGCC [U96A A140U] | 0
UACGUAGGUGGUUUUCCCCUGAUAGUGCUAAGGGGGCCUGGAAGUUUGGACUGGGCAGAGCUCAACACAGCGUGGCAAAGUGGCUGUGGCUAGACUGCCUCUCUGGAUUCCUCGUCACUCAGCAGGGCAUCUCUGAGAGAAAGGCC [U143G] | 1.11
UACGUAUGUGGUUUUCCCCUGAUAGUGCUAAGGGGGCCUGGAAGUUUGGACCGGGCAGAGCUCAACACAGCGUGGCAAAGUGGCUGUGGCUAGACUGCCUCUCUGGAUUCCUCGUCACUCAGCAGGGCAUCUCUGAGAGAAAUGCC [G7U U52C] | 1.1
UACGUAGGUGGUUUUCCCCUGAUAGUGCUAAGGGGGCCUGGAAGUUUGGACUGGGCAGAGCUCAACACAGCGUGGCAAAGUGGCUGUGGCUAGAUUGCCUCUCUGGAUUCCUCGUCAAUCAGCAGGGCAUCUCUGAGAGAAAUGCC [C95U C118A] | 0.13
UACGUAGGUGGUUUUCCCCUGAUAGUGCUAAGGGGGCCUGGAAGUUUGGACUGGGCAGAGCUCUACACAGCGUGGCAAAGUGGCUGUGGCUAGACUGCCUCUCUGGAUUCCUCGUCACUCAGCAUGGCAUCUCUGAGAGAAAUGCC [A64U G125U] | 0.41
UACGUAGGUGGUUUUCCCCUGAUAGUGCUAAGGGGGCCUGGAAGUUUGGACUGGGCAGAGCUCAACACAGCGUGGCAAAGUGGCUGAGGCUAGACUGCCUCUCUGGUUUCCUCGUCACUCAGCAGGGCAUCUCUGAGAGAAAUGCC [U87A A107U] | 0.09
UACGUAGGUGGUUUUCCCCUGAUCGUGCUAAGGGGGCCUGGAAGUUUGGACUGGGCAGAGCUCAUCACAGCGUGGCAAAGUGGCUGUGGCUAGACUGCCUCUCUGGAUUCCUCGUCACUCAGCAGGGCAUCUCUGAGAGAAAUGCC [A24C A65U] | 0
UACGUAGGUGGUUUUCCCCUGAUAGUGCUAAGGGGGCCUGGAAGUUCGGACUGGGCAGAGCUCAACACAGCGAGGCAAAGUGGCUGUGGCUAGACUGCCUCUCUGGAUUCCUCGUCACUCAGCAGGGCAUCUCUGAGAGAAAUGCC [U47C U73A] | 2.06
UUCGUAGGUGGUUUUCCCCUGAUAGUGCUAAGGGGGCCUGGAAGUUUGGACUGGGCAGAGCUCAACACAGCGUGGCAAAGUGGCUGUGGCUAGACUGCCUCUCAGGAUUCCUCGUCACUCAGCAGGGCAUCUCUGAGAGAAAUGCC [A2U U104A] | 0.26
UACGUAGGUGGUUUUCCCCUGAUAGUGCUAAGGGGUCCUGGAAGUUUGGACUGGGCAGAGCUCAACACGGCGUGGCAAAGUGGCUGUGGCUAGACUGCCUCUCUGGAUUCCUCGUCACUCAGCAGGGCAUCUCUGAGAGAAAUGCC [G36U A69G] | 0
UACGUAGGUGGUUUUCCCCUGAUUGUGCUAAGGGGGCCUGGAAGUUUGGACUGGGCAGAGCUCAACACAGCGUGGCAAAGUGGCUGUGGCCAGACUGCCUCUCUGGAUUCCUCGUCACUCAGCAGGGCAUCUCUGAGAGAAAUGCC [A24U U91C] | 0.45
UACGUAGGUGGUUUUCCCCUGAUAGUGCUAAAGGGGCCUGGAAGUUUGGACUGGGCAGAGCUCAACACAGCGUGGCAAAGUGGCUGUGGCUAGACUGCCACUCUGGAUUCCUCGUCACUCAGCAGGGCAUCUCUGAGAGAAAUGCC [G32A U100A] | 0.74
UACGUAGGUGGUUUUCCCCUGAUUGUGCUAAGGGGGCCUGGAAGUUUGGACUGGGCAGAGCUCAACACAGCGUGGCAAAGUGGCUGUGGCUAGACUGCCUCUCUGGACUCCUCGUCACUCAGCAGGGCAUCUCUGAGAGAAAUGCC [A24U U108C] | 1.33
UACGUAGGUGGUUUUCCCCUGAUAGUGCUAAGGGGGCCUGGAAGUUUGGACUGGGCAGAGCUCAACACAGCGUGGCAAAGUGGCUGUGGCUAGACUGCCCCUCUGGAUUCCUCGUCACUCAGCAGGGCAUCUCUGAGAGAAAUGCC [U100C] | 1.79
UACGUAGGUGGUUCUCCCCUGAUAGUGCUAAGGGGGCCUGGAAGUUCGGACUGGGCAGAGCUCAACACAGCGUGGCAAAGUGGCUGUGGCUAGACUGCCUCUCUGGAUUCCUCGUCACUCAGCAGGGCAUCUCUGAGAGAAAUGCC [U14C U47C] | 1.56
UACGAAGGUGGUUUUCCCCUGAUAGUGCUAAGGGGGCCUGGAAGUUUGGACUGGGCAGAGCUCAACACAGCGUGGCAAAGUGGCUGUGGCUAGACUGCCUCUCUGGAUUCCUCGUCACUCGGCAGGGCAUCUCUGAGAGAAAUGCC [U5A A121G] | 0.84
UGCGUAGGUGGUUUUCCCCUGAUAGUGCUAAGGGGGCCUGGAAGUUUGGACUGGGCAGAGCUCAACACAGCGUGGCAAAGUGGCUGUGGCUAGACGGCCUCUCUGGAUUCCUCGUCACUCAGCAGGGCAUCUCUGAGAGAAAUGCC [A2G U96G] | 0.12
UACGUAGGUGGUUUUCCCCUGAUAGCGCUAAGGGGGCCUGGAAGUUUGGACUGGGCAGAGCUCAACACAGCGUGGCAAAGUGGCAGUGGCUAGACUGCCUCUCUGGAUUCCUCGUCACUCAGCAGGGCAUCUCUGAGAGAAAUGCC [U26C U85A] | 0.11
